B1: Influenza virus NS1A-binding protein (Homo sapiens), Q9Y6Y0 (parent)
chain: MIPNGYLMFEDENFIESSVAKLNALRKSGQFCDVRLQVCGHEMLAHRAVLACCSPYLFEIFNSDSDPHGISHVKFDDLNPEAVEVLLNYAYTAQLKADKELVKDVYSAAKKLKMDRVKQVCGDYLLSRMDVTSCISYRNFASCMGDSRLLNKVDAYIQEHLLQISEEEEFLKLPRLKLEVMLEDNVCLPSNGKLYTKVINWVQRSIWENGDSLEELMEEVQTLYYSADHKLLDGNLLDGQAEVFGSDDDHIQFVQKKPPRENGHKQISSSSTGCLSSPNATVQSPKHEWKIVASEKTSNNTYLCLAVLDGIFCVIFLHGRNSPQSSPTSTPKLSKSLSFEMQQDELIEKPMSPMQYARSGLGTAEMNGKLIAAGGYNREECLRTVECYNPHTDHWSFLAPMRTPRARFQMAVLMGQLYVVGGSNGHSDDLSCGEMYDSNIDDWIPVPELRTNRCNAGVCALNGKLYIVGGSDPYGQKGLKNCDVFDPVTKLWTSCAPLNIRRHQSAVCELGGYLYIIGGAESWNCLNTVERYNPENNTWTLIAPMNVARRGAGVAVLNGKLFVCGGFDGSHAISCVEMYDPTRNEWKMMGNMTSPRSNAGIATVGNTIYAVGGFDGNEFLNTVEVYNLESNEWSPYTKIFQF

Variants of: B1
Settings: with cul3_human CUL3, Q13618

Variant	effect of a mutation on the interaction
M114L	causing an interaction
F75L	causing an interaction

— IntAct's records for PubMed 25619834
